Measurements: patent US8071348B2, “Protein tyrosine phosphatase substrate-trapping double mutant and uses thereof” (Albert Einstein College of Medicine of Yeshiva University, priority 2002, dated 2011)
[ ]: non-standard residue; d: D form. F2Pmp = N[C@@H](Cc1ccc(C(F)(F)P(=O)(O)O)cc1)C(=O)O

Assays:
[1] = molecular target: T1, EGFR 988-998 peptide DADEpYLIPQQG
T1 chain: DADEXLIPQQG

[2] = molecular target: T2, Ac-Asp-Ala-Asp-Glu-F2Pmp-Leu-NH2; experiment: ITC, 25 C, pH 7.0
T2 construct: Synthetic hexapeptide printed in three-letter code; also called F2Pmp-containing peptide; non-hydrolyzable substrate analog
T2 peptide: Ac-DADE[F2Pmp]L-NH2
Description: All isothermal titration calorimetry experiments were performed using an MCS Isothermal Titration Calorimetry System from Microcal Inc. (Northampton, Mass.). Experiments at pH 7.0 were conducted at 25° C., in 50 mM 3,3-dimethylglutarate buffer containing 1 mM DTT. The ionic strength of the buffer was adjusted to 0.15 M by addition of NaCl. Protein concentration in the calorimeter cell was 27-85 µM, while the ligand concentration in the syringe was 0.37-1 mM.
A typical titration curve and binding isotherm for the binding of D181A/Q262A to Ac-Asp-Ala-Asp-Glu-F_2Pmp-Leu-NH_2 is shown in FIG. 3. From curve-fitting of the binding isotherms, the stoichiometry for the binding of the peptide to D181A/Q262A was determined to be 1:1.

[3] = Kinetic constants for PTP1B-catalyzed hydrolysis of pNPP; type: biochemical; conditions: pNPP as substrate
Excerpt: The catalytic domain of PTP1B (residues 1 to 321) was used for in vitro study. PTP1B mutants, C215S, D181A, and Q262A, were described previously (9, 25, 26). PTP1B double mutants, D181A/C215S and C215S/Q262A, were generated by PCR reactions, according to the standard procedure of the Quick-Change™ site-directed mutagenesis kit (Stratagene), using pT7-7/PTP1B/C215S as a template. PTP1B double mutants, D181A/C215E and D181A/Q262A, were generated by similar PCR procedures, using pT7-7/PTP1B/D181A as a template. The recombinant wild-type and mutant PTP1Bs were expressed in E. coli, and purified to homogeneity as described (25, 27). Protein concentration was determined from absorbance measurement at 280 nm, using an absorbance coefficient of 1.24 for 1 mg/ml PTP1B.
PTP activity was assayed at 25° C. and pH 7.0, in a reaction mixture (0.2 ml) containing pNPP concentrations ranging from 0.2 to 5 Km. The following buffered solution was used for activity measurements: pH 7.0, 50 mM 3,3-dimethylglutarate, 1 mM EDTA; the ionic strength was 0.15 M, as adjusted by addition of NaCl. Initial rate measurements for the enzyme-catalyzed hydrolysis of pNPP were conducted as previously described (26). Michaelis-Menten kinetic parameters were determined from a direct fit of the data to the Michaelis-Menten equation, using the nonlinear regression program, KINETASYST (Intellikinetics, State College, Pa.).

EGF receptor = experiment: Substrate protection: EGF receptor tyrosine phosphorylation in COS1 cells expressing PTP1B forms (anti-pTyr Western blot); type: cell-based, Monkey; conditions: COS1 cell lysates, anti-pTyr immunoblot (FIG. 4)

B1: PTP1B/D181A/Q262A, catalytic domain (residues 1 to 321) (enzyme, human, UniProt P18031 1-321, looked up)
chain: MEMEKEFEQIDKSGSWAAIYQDIRHEASDFPCRVAKLPKNKNRNRYRDVSPFDHSRIKLHQEDNDYINASLIKMEEAQRSYILTQGPLPNTCGHFWEMVWEQKSRGVVMLNRVMEKGSLKCAQYWPQKEEKEMIFEDTNLKLTLISEDIKSYYTVRQLELENLTTQETREILHFHYTTWPAFGVPESPASFLNFLFKVRESGSLSPEHGPVVVHCSAGIGRSGTFCLADTCLLLMDKRKDPSSVDIKKVLLEMRKFRMGLIATADQLRFSYLAVIEGAKFIMGDSSVQDQWKELSHEDLEPPPEHIPPPPRPPKRILEPHN
notes: range 1-321; Used in vitro (ITC, kinetics); also called PTP1B substrate-trapping double mutant
With B1 the Km (hydrolysis of the EGFR 988-998 peptide, 25 C, pH 7.0) [1] was 51 µM, the “fold higher affinity than the D181A mutant” value [2] was about 6 fold and the “fold lower Kd than wild-type PTP1B and the C215S mutant” value [2] was about 30 fold. For the same molecule, the “fold decrease in Km relative to D181A” value [3] was 33 fold, the “fold decrease in kcat relative to D181A” value [3] was 11 fold and the Km ([3]; 25° C. and pH 7.0) was 2.4 ± 0.5 µM. The kcat ([3]; 25° C. and pH 7.0) was “(2.8 ± 0.1) × 10^−3 s^−1”, the “level of pTyr in the EGF receptor / enhancement of EGF receptor phosphorylation” value (EGF receptor) was “most pronounced” and the “protection of phosphorylated EGF receptors, fold better than D181A” value (EGF receptor) was “more than 3 fold”.
